Experimental data taken from US20220257825A1.

Molecular target: cell adhesion mediating proteins (CAMP), e.g. integrins, on the cells of the pig skin
Experiment: cell-based or functional assay

B1: C16spRGD (eADF4 (C16) genetically fused at the C-terminus to the tag spRGD, …) (protein)
chain: MASMTGGQQMGRGSMGSSAAAAAAAASGPGGYGPENQGPSGPGGYGPGGPGSSAAAAAAAASGPGGYGPENQGPSGPGGYGPGGPGSSAAAAAAAASGPGGYGPENQGPSGPGGYGPGGPGSSAAAAAAAASGPGGYGPENQGPSGPGGYGPGGPGSSAAAAAAAASGPGGYGPENQGPSGPGGYGPGGPGSSAAAAAAAASGPGGYGPENQGPSGPGGYGPGGPGSSAAAAAAAASGPGGYGPENQGPSGPGGYGPGGPGSSAAAAAAAASGPGGYGPENQGPSGPGGYGPGGPGSSAAAAAAAASGPGGYGPENQGPSGPGGYGPGGPGSSAAAAAAAASGPGGYGPENQGPSGPGGYGPGGPGSSAAAAAAAASGPGGYGPENQGPSGPGGYGPGGPGSSAAAAAAAASGPGGYGPENQGPSGPGGYGPGGPGSSAAAAAAAASGPGGYGPENQGPSGPGGYGPGGPGSSAAAAAAAASGPGGYGPENQGPSGPGGYGPGGPGSSAAAAAAAASGPGGYGPENQGPSGPGGYGPGGPGSSAAAAAAAASGPGGYGPENQGPSGPGGYGPGGPGGGSGGRGDSPG
Work on B1 yielded an Average σmax (N), pulling test on pig skin stripes, 35 mg/ml, 30 min incubation of 5.29 N and an average maximal adhesion strength compared with C16 (no RGD), pulling test on pig skin of 80%.
